Values joined by “and” are separate entries in the source; they are usually repeats but may differ in a detail not shown here. Identical values can stand only once. Values belong to the molecule of their own block, whether it stands above or below them.
What was measured:
[1] = biological target: murine LRRC8C, full length (murine) (UniProt Q8R502); assay: affinity purification with mass spectrometry; differentially tagged murine LRRC8A (or LRRC8A^SAM) and LRRC8C co-expressed in HEK293S GnTI- or LRRC8-/- cells at A:C DNA ratios of 1:1 or 1:3; tandem affinity purification (Ni-NTA, then Streptactin) in digitonin, 25 mM Tris pH 8.5, 250 mM NaCl, 4 °C; LC-MS/MS absolute quantification with isotope-labelled peptides
[2] = biological target: murine LRRC8C, full length (murine) (UniProt Q8R502); assay: cryo-EM structure; tandem-purified LRRC8A/C (A:C DNA 1:1 and 1:3) in digitonin with tag-free Sb1 added at a 1.5 molar excess before vitrification; C1; high resolution only for the 1:1 sample
[3] = biological target: T1, endogenous LRRC8A of HEK293 cells (human (endogenous in HEK293T), UniProt Q8IWT6); assay: affinity purification with mass spectrometry; pairs of the bait Sb1: endogenous LRRC8 channels from HEK293T (WT) or LRRC8^B,D,E-/- cells isolated on SBP-tagged Sb1 and Streptactin resin (Sb1 either expressed in the same cells or purified and bound to the resin before the lysate was loaded; which protocol for which sample is not told); 2% GDN lysis, 36 mM Tris pH 8.5, 150 mM NaCl; tryptic digest, LC-MS/MS
T1 construct: LRRC8A, endogenous in HEK293 cells; also called A subunit; SWELL1; source: endogenous, HEK293T and HEK293 LRRC8^B,D,E-/- cells, lysate in 2% GDN; isolated on SBP-tagged Sb1

[4] = biological target: T2, endogenous LRRC8C of HEK293 cells (human (endogenous in HEK293T), UniProt Q8TDW0 1-803); assay: affinity purification with mass spectrometry; pairs of endogenous LRRC8 subunits in the channels isolated on SBP-tagged Sb1 from HEK293T (WT) or LRRC8^B,D,E-/- cells; shotgun LC-MS/MS and absolute quantification with two isotope-labelled reference peptides per subunit; conditions: partners not purified
T2 construct: LRRC8C, endogenous in HEK293 cells; also called C subunit; source: endogenous, HEK293T and HEK293 LRRC8^B,D,E-/- cells, lysate in 2% GDN
T2 sequence (looked up): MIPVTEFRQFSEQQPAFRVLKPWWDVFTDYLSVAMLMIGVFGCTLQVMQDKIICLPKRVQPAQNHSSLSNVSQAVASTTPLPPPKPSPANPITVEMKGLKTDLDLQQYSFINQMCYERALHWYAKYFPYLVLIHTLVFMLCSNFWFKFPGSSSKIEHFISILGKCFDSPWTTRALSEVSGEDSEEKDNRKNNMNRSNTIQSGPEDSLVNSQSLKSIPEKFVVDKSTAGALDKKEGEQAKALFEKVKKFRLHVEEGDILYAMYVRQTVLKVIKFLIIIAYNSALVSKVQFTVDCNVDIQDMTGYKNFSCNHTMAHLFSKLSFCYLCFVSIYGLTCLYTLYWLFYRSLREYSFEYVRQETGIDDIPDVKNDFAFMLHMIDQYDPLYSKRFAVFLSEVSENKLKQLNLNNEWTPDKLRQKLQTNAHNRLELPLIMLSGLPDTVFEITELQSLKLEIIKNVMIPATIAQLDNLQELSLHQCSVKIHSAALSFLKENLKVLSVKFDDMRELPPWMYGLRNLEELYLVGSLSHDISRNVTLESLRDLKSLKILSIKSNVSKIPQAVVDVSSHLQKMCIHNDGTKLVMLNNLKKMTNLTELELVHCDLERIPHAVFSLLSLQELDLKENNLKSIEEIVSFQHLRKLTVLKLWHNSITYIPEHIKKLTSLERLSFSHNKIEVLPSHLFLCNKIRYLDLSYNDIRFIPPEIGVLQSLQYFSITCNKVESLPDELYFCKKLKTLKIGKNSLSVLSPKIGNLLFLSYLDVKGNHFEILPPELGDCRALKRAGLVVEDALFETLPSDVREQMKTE

[5] = biological target: the molecule itself; assay: cryo-EM structure; homomeric LRRC8C at 5 mg/ml in digitonin, three data sets, two of them with Sb1 added at a 1:1.5 molar excess (per LRRC8C subunit) as negative control; C7 symmetry

Molecule: murine LRRC8A (from UniProt Q80WG5 1-810) (natural protein)
stoichiometry N [1]: 2 A:C and 1.8 A:C | stoichiometry N [2]: 2 A:C

B2: endogenous LRRC8A of HEK293 cells (natural protein, human (endogenous in HEK293T), UniProt Q8IWT6 1-810, looked up)
chain: MIPVTELRYFADTQPAYRILKPWWDVFTDYISIVMLMIAVFGGTLQVTQDKMICLPCKWVTKDSCNDSFRGWAAPGPEPTYPNSTILPTPDTGPTGIKYDLDRHQYNYVDAVCYENRLHWFAKYFPYLVLLHTLIFLACSNFWFKFPRTSSKLEHFVSILLKCFDSPWTTRALSETVVEESDPKPAFSKMNGSMDKKSSTVSEDVEATVPMLQRTKSRIEQGIVDRSETGVLDKKEGEQAKALFEKVKKFRTHVEEGDIVYRLYMRQTIIKVIKFILIICYTVYYVHNIKFDVDCTVDIESLTGYRTYRCAHPLATLFKILASFYISLVIFYGLICMYTLWWMLRRSLKKYSFESIREESSYSDIPDVKNDFAFMLHLIDQYDPLYSKRFAVFLSEVSENKLRQLNLNNEWTLDKLRQRLTKNAQDKLELHLFMLSGIPDTVFDLVELEVLKLELIPDVTIPPSIAQLTGLKELWLYHTAAKIEAPALAFLRENLRALHIKFTDIKEIPLWIYSLKTLEELHLTGNLSAENNRYIVIDGLRELKRLKVLRLKSNLSKLPQVVTDVGVHLQKLSINNEGTKLIVLNSLKKMANLTELELIRCDLERIPHSIFSLHNLQEIDLKDNNLKTIEEIISFQHLHRLTCLKLWYNHIAYIPIQIGNLTNLERLYLNRNKIEKIPTQLFYCRKLRYLDLSHNNLTFLPADIGLLQNLQNLAITANRIETLPPELFQCRKLRALHLGNNVLQSLPSRVGELTNLTQIELRGNRLECLPVELGECPLLKRSGLVVEEDLFNTLPPEVKERLWRADKEQA
notes: LRRC8A, endogenous in HEK293 cells; also called A subunit; SWELL1; source: endogenous, HEK293T and HEK293 LRRC8^B,D,E-/- cells, lysate in 2% GDN; isolated on SBP-tagged Sb1
stoichiometry N [4]: 2.9 A:C and 1.8 A:C

B3: murine LRRC8C, full length (natural protein, UniProt Q8R502 1-803, looked up)
chain: MIPVTEFRQFSEQQPAFRVLKPWWDVFTDYLSVAMLMIGVFGCTLQVMQDKIICLPKRVQPAQNHSSVPNVSQAVISTTPLPPPKPSPTNPATVEMKGLKTDLDLQQYSFINQMCYERALHWYAKYFPYLVLIHTLVFMLCSNFWFKFPGSSSKIEHFISILGKCFDSPWTTRALSEVSGEDSEEKDNRKNNMNRSGTIQSGPEGNLVRSQSLKSIPEKFVVDKSAAGALDKKEGEQAKALFEKVKKFRLHVEEGDILYAMYVRQTVLKVIKFLIIIAYNSALVSKVQFTVDCNVDIQDMTGYKNFSCNHTMAHLFSKLSFCYLCFVSIYGLTCLYTLYWLFYRSLREYSFEYVRQETGIDDIPDVKNDFAFMLHMIDQYDPLYSKRFAVFLSEVSENKLKQLNLNNEWTPDKLRQKLQTNAHNRLELPLIMLSGLPDTVFEITELQSLKLEIIKNVMIPATIAQLDNLQELCLHQCSVKIHSAALSFLKENLKVLSVKFDDMRELPPWMYGLRNLEELYLVGSLSHDISKNVTLESLRDLKSLKILSIKSNVSKIPQAVVDVSSHLQKMCVHNDGTKLVMLNNLKKMTNLTELELVHCDLERIPHAVFSLLSLQELDLKENNLKSIEEIVSFQHLRKLTVLKLWYNSIAYIPEHIKKLTSLERLFFSHNKVEVLPSHLFLCNKIRYLDLSYNDIRFIPPEIGVLQSLQYFSITCNKVESLPDELYFCKKLKTLKIGKNSLSVLSPKIGNLLFLSYLDIKGNHFEVLPPELGDCRALKRAGLVVEDALFETLPSDVREQMKAD
notes: LRRC8C, mouse; A remnant of the 3C site probably stays at the C-terminus; also called C subunit; C1; source: HEK293 LRRC8-/- cells (homomer; LRRC8A/C without Sb1; LRRC8A^SAM/C) or HEK293S GnTI- cells (LRRC8A/C/Sb1 samples), transfected, purified (Streptactin, SEC; tandem purification for heteromers) in digitonin; not shown: Venus, C-terminal, cleaved; myc, C-terminal, cleaved; SBP, C-terminal, …
stoichiometry N [5]: 7

Continued, values first:

stoichiometry N [1]: 2 A:C
Molecule: LRRC8A^SAM, construct for co-expression with LRRC8C (from UniProt Q80WG5 1-67; Q80WG5 93-810)

binding result [3]: binds
B1: SBP-tagged sybody Sb1 (VHH)
VHH: QVQLVESGGGLVQAGGSLRLSCAASGFPVGRHFMYWYRQAPGKEREWVAAIYSYGEYTEYADSVKGRFTISRDNAKNTVYLQMNSLKPEDTAVYYCYVYVGNEYWGQGTQVTVSA
notes: as the chain of m3 (sybody Sb1), here with a C-terminal 3C site, myc tag and SBP tag (pcDXc3MS); they are in PDB 8B41 and PDB 7P5V; also called SBP-tagged Sb1; immobilized Sb1; not shown: myc, C-terminal, kept; SBP, C-terminal, kept

Source: article PMC9851909, “Structure of a volume-regulated heteromeric LRRC8A/C channel” (Nature Structural & Molecular Biology, 2022)
